The assay deals with T1, human CD3e/g antigen (ACRO, catalog number CDG-H52W5) (human, UniProt P07766 23-126; P09693 23-116).
T1 construct: Bought reagent used as the Biacore analyte; also called hCD3e/g
The assay is described as follows: SPR (Biacore 8K), antibody captured via anti-human Fc. The procedure:
The equilibrium dissociation constant of binding of CD3 antibodies to human CD3e/g antigen (purchased from ACRO, catalog number CDG-H52W5) was determined by kinetic binding method using Biacore 8K (GE) system. Through the capture method, the carboxylated dextran surface of CM5 chip was first activated with NHS (N-hydroxysuccinimide) and EDC (1-(3-dimethylaminopropyl)-3-ethylcarbodiimide hydrochloride), and then added with an anti-human IgG (Fc) antibody, the free amino group of which could form an amide bond with the activated carboxyl group, thereby being fixed on the chip surface. The anti-human IgG (Fc) antibody could bind to the Fc end of CD3 antibodies to capture the antibodies, and then a series of concentrations of antigen were added to obtain the binding and dissociation curves of antibody and antigen, and the corresponding kinetic constants were calculated by Biacore Evaluation software, as shown in the table below.

Changes are numbered by the printed parent chain.

B1: hAb008-23 (antibody, V domains shown)
VH: QVQLVQSGAEVKKPGASVKVSCKASGYTFTDYTVNWVRQAPGQRLEWIGYINPFNSYTKYNQKFKDRVTITADTSASTAYMELSSLRSEDTAVYYCANSVSTYWGQGTTVTVSS
VL: DVVMTQSPLSLPVTLGQPASISCKSSQSLLDSDGKTYLNWLLQRPGQSPRRLIQLVSKLNSGVPDRFSGSGSGTDFTLKISRVEAEDVGVFYCWQGTHFPRTFGGGTKLEIK
notes: Humanized; constant regions not specified
One may read the Kd as the free concentration of one partner at which half of the binding sites on the other are occupied at equilibrium, for simple one-to-one binding. Low values mean higher affinity, high ones lower affinity. By koff is commonly meant the rate constant with which the complex falls apart. Low readings indicate a long-lived complex, high ones a short-lived complex. In general, kon refers to the second-order rate constant of association. A high value points to faster complex formation. B1: the affinity, expressed as Kd, was 17.4 nM; the koff was found to be 0.00487 s⁻¹; the kon was found to be 280000 M⁻¹ s⁻¹.

B2: hAb008-27 (antibody, V domains shown)
VH: B1 VH with V68A, Y95F
VL: B1 VL
notes: as for B1
Molecule B2 gave a Kd of 18 nM, a koff of 0.00475 s⁻¹ and a kon of 264000 M⁻¹ s⁻¹.

B3: hAb008-25 (antibody, V domains shown)
VH: B1 VH with V68A, Y95F
VL: B1 VL with L41F, L42Q
notes: as for B1
Turning to B3, binding was put at a Kd of 36.8 nM, the koff is 0.00741 s⁻¹ and the kon was 202000 M⁻¹ s⁻¹.

B4: hAb008-28 (antibody, V domains shown)
VH: B1 VH with R38K, V68A, Y95F
VL: B1 VL with L41F, L42Q, Q54Y, F91Y
notes: as for B1
For B4, the Kd turned out to be 27.2 nM, the koff worked out at 0.00441 s⁻¹ and the kon turned out to be 162000 M⁻¹ s⁻¹.

B5: hAb008-30 (antibody, V domains shown)
VH: B1 VH with R38K, V68A, Y95F
VL: B1 VL with L42Q
notes: as for B1
B5: binding was characterised by a dissociation constant (Kd) of 20.4 nM, the koff turned out to be 0.00522 s⁻¹ and the kon was found to be 256000 M⁻¹ s⁻¹.

B6: hAb008-31 (antibody, V domains shown)
VH: B1 VH with R38K, V68A, Y95F
VL: B1 VL
notes: as for B1
The molecule B6 returned a Kd of 15.1 nM, a koff of 0.00381 s⁻¹ and a kon of 252000 M⁻¹ s⁻¹.

B7: hAb008-24 (antibody, V domains shown)
VH: B1 VH with V68A, Y95F
VL: B1 VL with L41F, L42Q, Q54Y, F91Y
notes: as for B1
As for B7, binding was characterised by a dissociation constant (Kd) of 21.5 nM, the koff was found to be 0.00269 s⁻¹ and the kon is 125000 M⁻¹ s⁻¹.

B8: hAb008-29 (antibody, V domains shown)
VH: B1 VH with R38K, V68A, Y95F
VL: B1 VL with L41F, L42Q
notes: as for B1
B8: the Kd was 20.8 nM, the koff was 0.00378 s⁻¹ and the kon turned out to be 182000 M⁻¹ s⁻¹.

B9: hAb007-21 (antibody, V domains shown)
VH: QVQLVQSGAEVKKPGASVKVSCKASGSTFTDNYIHWVRQAPGQRLEWIGWIYPGSVNIKYNEKFKDRVTITADTSASTAYMELSSLRSEDTAVYYCARDISRYYFDYWGQGTTVTVSS
VL: DIVMTQSPDSLAVSLGERATINCKSSQSLLNSRTRKNYLAWYQQKPGQPPKLLIYWASTRESGVPDRFSGSGSGTDFTLTISSLQAEDVAVYYCKQSFILRTFGGGTKLEIK
notes: as for B1
Take B9: binding was put at a Kd of 8.06 nM, the koff came out at 0.00377 s⁻¹ and the kon was 468000 M⁻¹ s⁻¹.

B10: hAb007-30 (antibody, V domains shown)
VH: B9 VH with R38K, V68A, S77T
VL: B9 VL with S69T
notes: as for B1
The molecule B10 returned a Kd of 7.11 nM, a koff of 0.00316 s⁻¹ and a kon of 445000 M⁻¹ s⁻¹.

B11: hAb007-25 (antibody, V domains shown)
VH: B9 VH with V68A
VL: B9 VL
notes: as for B1
Consider B11, for which the Kd stood at 9.24 nM, the dissociation rate constant (koff) amounted to 0.0043 s⁻¹ and the kon worked out at 465000 M⁻¹ s⁻¹.

B12: hAb007-27 (antibody, V domains shown)
VH: B9 VH with V68A
VL: B9 VL with I21M
notes: as for B1
In turn, B12 yielded a Kd of 10 nM, a koff of 0.00427 s⁻¹ and a kon of 427000 M⁻¹ s⁻¹.

B13: hAb007-20 (antibody, V domains shown)
VH: B9 VH with I48M, A72R
VL: B9 VL with I21M, S69T
notes: as for B1
Turning to B13, the equilibrium dissociation constant (Kd) was 11.1 nM, the koff stood at 0.00375 s⁻¹ and the on-rate constant (kon) amounted to 337000 M⁻¹ s⁻¹.

B14: hAb007-19 (antibody, V domains shown)
VH: B9 VH with I48M, A72R
VL: B9 VL with I21M
notes: as for B1
B14 displayed a Kd of 9.32 nM, a koff of 0.00317 s⁻¹ and a kon of 340000 M⁻¹ s⁻¹.

B15: hAb007-32 (antibody, V domains shown)
VH: B9 VH with R38K, V68A, S77T
VL: B9 VL with I21M, S69T
notes: as for B1
For the molecule B15, the affinity, expressed as Kd, was 7.62 nM; the koff stood at 0.0032 s⁻¹; the kon is 419000 M⁻¹ s⁻¹.

B16: hAb007-22 (antibody, V domains shown)
VH: B9 VH
VL: B9 VL with S69T
notes: as for B1
The molecule B16 came in with a dissociation constant Kd of 13.3 nM, a koff of 0.00594 s⁻¹ and a kon of 446000 M⁻¹ s⁻¹.

B17: hAb007-28 (antibody, V domains shown)
VH: B9 VH with V68A
VL: B9 VL with I21M, S69T
notes: as for B1
Regarding B17, the dissociation constant Kd stood at 11.8 nM, the dissociation rate constant (koff) was found to be 0.00494 s⁻¹ and the kon came out at 420000 M⁻¹ s⁻¹.

B18: hAb007-24 (antibody, V domains shown)
VH: B9 VH
VL: B9 VL with I21M, S69T
notes: as for B1
The molecule B18 showed a Kd of 6.16 nM, an off-rate constant (koff) of 0.00258 s⁻¹ and a kon of 419000 M⁻¹ s⁻¹.

B19: hAb007-17 (antibody, V domains shown)
VH: B9 VH with I48M, A72R
VL: B9 VL
notes: as for B1
B19: binding was put at a Kd of 5.85 nM, the koff stood at 0.00225 s⁻¹ and the kon was determined as 385000 M⁻¹ s⁻¹.

B20: hAb007-23 (antibody, V domains shown)
VH: B9 VH
VL: B9 VL with I21M
notes: as for B1
For B20, binding was characterised by a dissociation constant (Kd) of 6.59 nM, the koff amounted to 0.0029 s⁻¹ and the kon stood at 439000 M⁻¹ s⁻¹.

B21: hAb007-31 (antibody, V domains shown)
VH: B9 VH with R38K, V68A, S77T
VL: B9 VL with I21M
notes: as for B1
On to B21, for which the Kd amounted to 5.26 nM, the koff was determined as 0.00225 s⁻¹ and the association rate constant (kon) is 427000 M⁻¹ s⁻¹.

B22: hAb007-26 (antibody, V domains shown)
VH: B9 VH with V68A
VL: B9 VL with S69T
notes: as for B1
For the molecule B22, the equilibrium dissociation constant (Kd) came to 12 nM, the koff came to 0.00565 s⁻¹ and the kon was determined as 470000 M⁻¹ s⁻¹.

B23: hAb007-18 (antibody, V domains shown)
VH: B9 VH with I48M, A72R
VL: B9 VL with S69T
notes: as for B1
Take B23: binding was characterised by a dissociation constant (Kd) of 6.01 nM, the koff was found to be 0.00241 s⁻¹ and the association rate constant (kon) came out at 401000 M⁻¹ s⁻¹.

B24: hAb007-29 (antibody, V domains shown)
VH: B9 VH with R38K, V68A, S77T
VL: B9 VL
notes: as for B1
As to B24, binding was characterised by a dissociation constant (Kd) of 9.85 nM, the koff stood at 0.00415 s⁻¹ and the kon was 421000 M⁻¹ s⁻¹.
